Data: patent US7824897B2, “Modified tumor necrosis factor-alpha converting enzyme and methods of use thereof” (Schering Corp., priority 2002, dated 2010)

B1: TACE: native tumor necrosis factor-alpha converting enzyme catalytic domain (SEQ ID NO: 6), with GS linker and polyHis tag (protein, listed as Homo sapiens)
chain: RADPDPMKNTCKLLVVADHRFYRYMGRGEESTTTNYLIELIDRVDDIYRNTAWDNAGFKGYGIQIEQIRILKSPQEVKPGEKHYNMAKSYPNEEKDAWDVKMLLEQFSFDIAEEASKVCLAHLFTYQDFDMGTLGLAYVGSPRANSHGGVCPKAYYSPVGKKNIYLNSGLTSTKNYGKTILTKEADLVTTHELGHNFGAEHDPDGLAECAPNEDQGGKYVMYPIAVSGDHENNKMFSQCSKQSIYKTIESKAQECFQERSNKV
modifications: GS linker and polyHis tag
B2: V353G: modified TACE catalytic domain, Val353 replaced with glycine (SEQ ID NO: 20) (protein, listed as Homo sapiens)
chain: RADPDPMKNTCKLLVVADHRFYRYMGRGEESTTTNYLIELIDRVDDIYRNTAWDNAGFKGYGIQIEQIRILKSPQEVKPGEKHYNMAKSYPNEEKDAWDVKMLLEQFSFDIAEEASKVCLAHLFTYQDFDMGTLGLAYGGSPRANSHGGVCPKAYYSPVGKKNIYLNSGLTSTKNYGKTILTKEADLVTTHELGHNFGAEHDPDGLAECAPNEDQGGKYVMYPIAVSGDHENNKMFSQCSKQSIYKTIESKAQECFQERSNKV

Key:
Format in all cases: physicochemical
TACE [1] = target: T1, TACE (Homo sapiens, UniProt P78536, N452Q/S266A); experiment: Stability of TACE (auto-proteolysis) on storage at 4 degrees Celsius, SDS-PAGE; conditions: TACE 15 mg/ml, seven days
T1 construct: Only the catalytic domain was purified; GS linker + His6 (C); made in house; host or cells: Trichoplusia ni (High5) cells, baculovirus
Procedure: Stability of TACE: The stability of TACE was examined under several buffer conditions at pH 7.5. Twenty microliter aliquots of TACE at 15 mg/ml were desalted over P-6 spin columns (BioRAD, Hercules, Calif.) that had been equilibrated in: • (a) 25 mM Tris, 0.15M NaCl; • (b) 25 mM Tris; or • (c) 25 mM Tris plus N-{D,L-2-(hydroxyaminocarbonyl)methyl-4-methylpentanoyl}-L-3-amino-2-dimethylbutanoyl-L-alanine, 2-(amino)ethyl amide.
The stability of the TACE protein was evaluated after storage at 4 degrees Celsius for seven days. After incubating the TACE polypeptide under the three conditions listed above, Sodium Dodecyl Sulfate PolyAcrylamide Gel Electrophoresis (SDS-PAGE) was performed. […] Moreover, the sequencing data indicated the presence of a single cleavage site at 352Y-V353 of SEQ ID NO: 2.

TACE [2] = target: T1, TACE; experiment: Stability of TACE and TACE mutants under different storage conditions, SDS-PAGE; conditions: 25 mM Tris pH 7.5, 4 degrees Celsius, 3 hours
Procedure: (§1) Stability of TACE and TACE mutants: To test for stability under different storage conditions, 20 ul of TACE protein, at 15 mg/ml, was desalted over BIO-RAD P-6 columns equilibrated at pH 7.5 in: • (a) 25 mM Tris, 0.15M NaCl; • (b) 25 mM Tris+1 mM N-{D,L-2-(hydroxyaminocarbonyl)methyl-4-methylpentanoyl}-L-3-amino-2-dimethylbutanoyl-L-alanine, 2-(amino)ethyl amide; or • (c) 25 mM Tris.
(§2) One microliter aliquots were analyzed by SDS-PAGE after storing them for 3 hours, or 17 days at 4 degrees Celsius. […] In direct contrast, all constructs were stable in either 0.15M NaCl, or 1 mM N-{D,L-2-(hydroxyaminocarbonyl)methyl-4-methylpentanoyl}-L-3-amino-2-dimethylbutanoyl-L-alanine, 2-(amino)ethyl amide.

TACE [3] = experiment: as above; conditions: 25 mM Tris pH 7.5, 4 degrees Celsius, 17 days
Procedure: as §1, §2

Molecule | SDS-PAGE bands after storage with inhibitor (TACE [1]; 25 mM Tris pH 7.5, 1:1.5 molar ratio enzyme:inhibitor, 4 degrees Celsius) | Proteolysis by SDS-PAGE in the absence of salt (TACE [2]) | Proteolysis by SDS-PAGE in the absence of salt (TACE [3]) | SDS-PAGE bands after storage without high salt or inhibitor (TACE [1]; 25 mM Tris pH 7.5, 4 degrees Celsius)
CC(C)CC(CC(=O)NO)C(=O)N[C@H](C(=O)N[C@@H](C)C(=O)NCCN)C(C)(C)C (stereo partly drawn) [N-{D,L-2-(hydroxyaminocarbonyl)methyl-4-methylpentanoyl}-L-3-amino-2-dimethylbutanoyl-L-alanine, 2-(amino)ethyl amide, reference compound] | only a single band having a molecular weight of 30 Kd was observed | – | – | –
B1 | – | substantial proteolysis | completely proteolyzed | two additional fainter bands
B2 | – | – | highly resistant to auto-proteolysis | –
